Test system: HepG2 liver carcinoma cells
Experiment: Cytotoxicity, cell viability by CCK-8 kit
Assay type: cell-based
Details: about 5,000 HepG2 cells, 37° C., 46 hours
Procedure: The liposomes prepared in the same manner as in Example 1 were incubated with cells to confirm cell proliferation.
The liposomes prepared in the same manner as in Example 1 were added in different concentrations to about 5,000 HepG2 liver carcinoma cells, followed by being incubated at a temperature of 37° C. for 46 hours. The viability of the cultured cells was measured using a CCK-8 kit (Dojindo), and the results were shown in FIG. 7 (●: albumin, ▪: complex containing SRF and albumin).

albumin: albumin alone, control in the cytotoxicity test; Bovine Serum Albumin in Example 1
toxicity (cell viability): not toxic

Source: US9457082B2, “Liposome including complex of hydrophobic active ingredient and polypeptide and use of the liposome” (Samsung Electronics Co., Ltd., priority 2013, dated 2016)
